Measured values published in the supplement of paper PMC11246515.
± gives the standard deviation of the averaged measurements.

Experiment: total protein half-life in vivo (active degradation + dilution); higher = more stable protein
[1] = E. coli NCM3722 delta-clpP delta-lon delta-hslV, growth: N-lim chemostat, doubling time 6 h
[2] = E. coli NCM3722 delta-hslV, growth: N-lim chemostat, doubling time 6 h
[3] = E. coli NCM3722 delta-lon, growth: N-lim chemostat, doubling time 6 h
[4] = E. coli NCM3722 delta-smpB, growth: N-lim chemostat, doubling time 6 h
[5] = wild type E. coli NCM3722, growth: C-lim chemostat, doubling time 3 h
[6] = wild type E. coli NCM3722, growth: C-lim chemostat, doubling time 6 h
[7] = wild type E. coli NCM3722, growth: C-lim chemostat, doubling time 12 h
[8] = wild type E. coli NCM3722, growth: N-lim chemostat, doubling time 6 h
[9] = wild type E. coli NCM3722, growth: N-lim chemostat, doubling time 12 h
[10] = wild type E. coli NCM3722, growth: P-lim chemostat, doubling time 6 h
[11] = wild type E. coli NCM3722, growth: P-lim chemostat, doubling time 12 h
[12] = E. coli NCM3722 delta-clpP, growth: N-lim chemostat, doubling time 6 h

Sequence: MKLSRRSFMKANAVAAAAAAAGLSVPGVARAVVGQQEAIKWDKAPCRFCGTGCGVLVGTQQGRVVACQGDPDAPVNRGLNCIKGYFLPKIMYGKDRLTQPLLRMKNGKYDKEGEFTPITWDQAFDVMEEKFKTALKEKGPESIGMFGSGQWTIWEGYAASKLFKAGFRSNNIDPNARHCMASAVVGFMRTFGMDEPMGCYDDIEQADAFVLWGANMAEMHPILWSRITNRRLSNQNVTVAVLSTYQHRSFELADNGIIFTPQSDLVILNYIANYIIQNNAINQDFFSKHVNLRKGATDIGYGLRPTHPLEKAAKNPGSDASEPMSFEDYKAFVAEYTLEKTAEMTGVPKDQLEQLAQLYADPNKKVISYWTMGFNQHTRGVWANNLVYNLHLLTGKISQPGCGPFSLTGQPSACGTAREVGTFAHRLPADMVVTNEKHRDICEKKWNIPSGTIPAKIGLHAVAQDRALKDGKLNVYWTMCTNNMQAGPNINEERMPGWRDPRNFIIVSDPYPTVSALAADLILPTAMWVEKEGAYGNAERRTQFWRQQVQAPGEAKSDLWQLVQFSRRFKTEEVWPEDLLAKKPELRGKTLYEVLYATPEVSKFPVSELAEDQLNDESRELGFYLQKGLFEEYAWFGRGHGHDLAPFDDYHKARGLRWPVVNGKETQWRYSEGNDPYVKAGEGYKFYGKPDGKAVIFALPFEPAAEAPDEEYDLWLSTGRVLEHWHTGSMTRRVPELHRAFPEAVLFIHPLDAKARDLRRGDKVKVVSRRGEVISIVETRGRNRPPQGLVYMPFFDAAQLVNKLTLDATDPLSKETDFKKCAVKLEKV
- total protein half-life in vivo [1]: 4.71 h
- total protein half-life in vivo [2]: 5.32 ± 0.18 h
- total protein half-life in vivo [3]: 3.56 ± 0.76 h
- total protein half-life in vivo [4]: 3.46 ± 0.36 h
- total protein half-life in vivo [5]: 2.03 ± 0.31 h
- total protein half-life in vivo [6]: 4.52 ± 0.7 h
- total protein half-life in vivo [7]: 8.61 ± 1.2 h
- total protein half-life in vivo [8]: 4.268 ± 0.041 h
- total protein half-life in vivo [9]: 5.85 ± 2.3 h
- total protein half-life in vivo [10]: 3.574 ± 0.034 h
- total protein half-life in vivo [11]: > 16 h

Sequence: MTYAVEFDNVSRLYGDVRAVDGVSIAIKDGEFFSMLGPSGSGKTTCLRLIAGFEQLSGGAISIFGKPASNLPPWERDVNTVFQDYALFPHMSILDNVAYGLMVKGVNKKQRHAMAQEALEKVALGFVHQRKPSQLSGGQRQRVAIARALVNEPRVLLLDEPLGALDLKLREQMQLELKKLQQSLGITFIFVTHDQGEALSMSDRVAVFNNGRIEQVDSPRDLYMRPRTPFVAGFVGTSNVFDGLMAEKLCGMTGSFALRPEHIRLNTPGELQANGTIQAVQYQGAATRFELKLNGGEKLLVSQANMTGEELPATLTPGQQVMVSWSRDVMVPLVEER
- total protein half-life in vivo [1]: 6.01 ± 0.38 h
- total protein half-life in vivo [12]: 6.427 ± 0.038 h
- total protein half-life in vivo [2]: 5.58 ± 0.28 h
- total protein half-life in vivo [3]: 4.65 ± 1.3 h
- total protein half-life in vivo [4]: 5.64 ± 0.085 h
- total protein half-life in vivo [7]: 10.2 ± 0.023 h
- total protein half-life in vivo [8]: 4.78 ± 0.27 h
- total protein half-life in vivo [9]: 10.4 ± 0.55 h
- total protein half-life in vivo [10]: 4.68 h
- total protein half-life in vivo [11]: 10.8 ± 1.8 h

Sequence: MDKFRVQGPTKLQGEVTISGAKNAALPILFAALLAEEPVEIQNVPKLKDVDTSMKLLSQLGAKVERNGSVHIDARDVNVFCAPYDLVKTMRASIWALGPLVARFGQGQVSLPGGCTIGARPVDLHISGLEQLGATIKLEEGYVKASVDGRLKGAHIVMDKVSVGATVTIMCAATLAEGTTIIENAAREPEIVDTANFLITLGAKISGQGTDRIVIEGVERLGGGVYRVLPDRIETGTFLVAAAISRGKIICRNAQPDTLDAVLAKLRDAGADIEVGEDWISLDMHGKRPKAVNVRTAPHPAFPTDMQAQFTLLNLVAEGTGFITETVFENRFMHVPELSRMGAHAEIESNTVICHGVEKLSGAQVMATDLRASASLVLAGCIAEGTTVVDRIYHIDRGYERIEDKLRALGANIERVKGE [P0A749]
- total protein half-life in vivo [1]: 4.88 ± 0.64 h
- total protein half-life in vivo [12]: 3.91 ± 0.28 h
- total protein half-life in vivo [2]: 3.48 ± 0.22 h
- total protein half-life in vivo [3]: 4.25 ± 0.55 h
- total protein half-life in vivo [4]: 3.39 ± 0.23 h
- total protein half-life in vivo [5]: 2.92 ± 0.043 h
- total protein half-life in vivo [6]: 6.05 ± 1.2 h
- total protein half-life in vivo [7]: 9.85 ± 0.48 h
- total protein half-life in vivo [8]: 3.47 ± 0.084 h
- total protein half-life in vivo [9]: 5.28 ± 0.25 h
- total protein half-life in vivo [10]: 5.53 ± 0.1 h
- total protein half-life in vivo [11]: 10.9 ± 0.56 h

Sequence: MEQAHTQLIAQLNERILAADNTPLYIKFAETVKNAVRSGVLEHGNILPGERDLSQLTGVSRITVRKAMQALEEEGVVTRSRGYGTQINNIFEYSLKEARGFSQQVVLRGKKPDTLWVNKRVVKCPEEVAQQLAVEAGSDVFLLKRIRYVDEEAVSIEESWVPAHLIHDVDAIGISLYDYFRSQHIYPQRTRSRVSARMPDAEFQSHIQLDSKIPVLVIKQVALDQQQRPIEYSISHCRSDLYVFVCEE [P0ACM5]
- total protein half-life in vivo [1]: 5.72 ± 0.0036 h
- total protein half-life in vivo [2]: 4.14 ± 0.2 h
- total protein half-life in vivo [3]: 4.55 ± 0.12 h
- total protein half-life in vivo [4]: 3.91 ± 0.15 h
- total protein half-life in vivo [5]: 2.75 ± 0.084 h
- total protein half-life in vivo [6]: 4.84 ± 0.37 h
- total protein half-life in vivo [7]: 8.6 ± 0.18 h
- total protein half-life in vivo [8]: 4.04 ± 0.17 h
- total protein half-life in vivo [9]: 6.99 ± 0.2 h
- total protein half-life in vivo [10]: 4.28 ± 0.053 h
- total protein half-life in vivo [11]: 7.99 ± 0.19 h
